The target in this experiment is different isoforms of the 14-3-3. Kind of experiment: not stated (R18 isolated by phage display; Wang et al. 1999 cited).

Regarding PHCVPRDLSWLDLEANMCLP [R18 polypeptide (14-3-3 amphipathic groove binding antagonist)], the Kd (as a rule, the equilibrium constant for the complex coming apart) amounted to 80 nM.

For the origin of these results see patent publication US20040152630A1.
